Source: paper PMC3786598 (Microscopy and microanalysis : the official journal of …, 2012)

Biological target: the molecule itself
Assay: single-molecule stepwise photobleaching

B1: prestin-eGFP (natural protein, UniProt Q9JKQ2 1-744, looked up)
chain: MDHAEENEIPVATQKYHVERPIFSHPVLQERLHVKDKVSESIGDKLKQAFTCTPKKIRNIIYMFLPITKWLPAYKFKEYVLGDLVSGISTGVLQLPQGLAFAMLAAVPPVFGLYSSFYPVIMYCFFGTSRHISIGPFAVISLMIGGVAVRLVPDDIVIPGGVNATNGTEARDALRVKVAMSVTLLSGIIQFCLGVCRFGFVAIYLTEPLVRGFTTAAAVHVFTSMLKYLFGVKTKRYSGIFSVVYSTVAVLQNVKNLNVCSLGVGLMVFGLLLGGKEFNERFKEKLPAPIPLEFFAVVMGTGISAGFNLHESYSVDVVGTLPLGLLPPANPDTSLFHLVYVDAIAIAIVGFSVTISMAKTLANKHGYQVDGNQELIALGICNSIGSLFQTFSISCSLSRSLVQEGTGGKTQLAGCLASLMILLVILATGFLFESLPQAVLSAIVIVNLKGMFMQFSDLPFFWRTSKIELTIWLTTFVSSLFLGLDYGLITAVIIALLTVIYRTQSPSYKVLGQLPDTDVYIDIDAYEEVKEIPGIKIFQINAPIYYANSDLYSNALKRKTGVNPALIMGARRKAMRKYAKEVGNANIANAAVVKVDGEVDGENATKPEEEDDEVKYPPIVIKTTFPEELQRFMPQTENVHTIILDFTQVNFIDSVGVKTLAVMVKEYGDVGIYVYLAGCSPQVVNDLTRNRFFENPALKELLFHSIHDAVLGSHVREAMAEQEASAPPPQDDMEPNATPTTPEA
stoichiometry N: 4
